Source: paper PMC10086585, “From netrin‐1‐targeted SPECT/CT to internal radiotherapy for management of advanced solid tumors” (EMBO Molecular Medicine, 2023)

Molecular target: T1, human recombinant netrin‐1, on AHC biosensors (human, UniProt O95631 25-604)
T1 construct: netrin-1, human, recombinant; AHC sensors capture human IgG Fc, so an Fc-tagged netrin-1 is surmised; Capture through a human antibody cannot be excluded; It may otherwise be the same protein as m1; also called h‐netrin‐1
Test: BLI; netrin-1 on AHC biosensors; analytes at 3.12-100 nM; 30°C, 1,000 rpm; PBS, 0.02% Tween-20, 0.1% BSA; 5 min association, 5 min dissociation
Conditions: both partners purified

| Kd [µM] | Binder |
| --- | --- |
| 0.0155 | recombinant human lumican (natural protein, UniProt P51884 19-338, looked up, lumican, human, recombinant; also called hLumican) QYYDYDFPLSIYGQSSPNCAPECNCPESYPSAMYCDELKLKSVPMVPPGIKYLYLRNNQIDHIDEKAFENVTDLQWLILDHNLLENSKIKGRVFSKLKQLKKLHINHNNLTESVGPLPKSLEDLQLTHNKITKLGSFEGLVNLTFIHLQHNRLKEDAVSAAFKGLKSLEYLDLSFNQIARLPSGLPVSLLTLYLDNNKISNIPDEYFKRFNALQYLRLSHNELADSGIPGNSFNVSSLVELDLSYNKLKNIPTVNENLENYYLEVNQLEKFDIKSFCKILGPLSYSKIKHLRLDGNRISETSLPPDMYECLRVANEVTLN |
| 0.0155 | fibronectin leucine‐rich transmembrane protein (FLRT1), recombinant human (natural protein, UniProt Q9NZU1 49-552, looked up, FLRT1 (fibronectin leucine-rich transmembrane protein 1), human, recombinant; also called hFLRT‐1; FLTR1) IDSTTCPSVCRCDNGFIYCNDRGLTSIPADIPDDATTLYLQNNQINNAGIPQDLKTKVNVQVIYLYENDLDEFPINLPRSLRELHLQDNNVRTIARDSLARIPLLEKLHLDDNSVSTVSIEEDAFADSKQLKLLFLSRNHLSSIPSGLPHTLEELRLDDNRISTIPLHAFKGLNSLRRLVLDGNLLANQRIADDTFSRLQNLTELSLVRNSLAAPPLNLPSAHLQKLYLQDNAISHIPYNTLAKMRELERLDLSNNNLTTLPRGLFDDLGNLAQLLLRNNPWFCGCNLMWLRDWVKARAAVVNVRGLMCQGPEKVRGMAIKDITSEMDECFETGPQGGVANAAAKTTASNHASATTPQGSLFTLKAKRPGLRLPDSNIDYPMATGDGAKTLAIHVKALTADSIRITWKATLPASSFRLSWLRLGHSPAVGSITETLVQGDKTEYLLTALEPKSTYIICMVTMETSNAYVADETPVCAKAETADSYGPTTTLNQEQNAGPMASLP |
| 0.00096 | recombinant human integrin α6β4 (complex, integrin alpha-6, human, recombinant; integrin beta-4, human, recombinant; also called hIntegrin) chain 1: FNLDTREDNVIRKYGDPGSLFGFSLAMHWQLQPEDKRLLLVGAPRAEALPLQRANRTGGLYSCDITARGPCTRIEFDNDADPTSESKEDQWMGVTVQSQGPGGKVVTCAHRYEKRQHVNTKQESRDIFGRCYVLSQNLRIEDDMDGGDWSFCDGRLRGHEKFGSCQQGVAATFTKDFHYIVFGAPGTYNWKGIVRVEQKNNTFFDMNIFEDGPYEVGGETEHDESLVPVPANSYLGLLFLTSVSYTDPDQFVYKTRPPREQPDTFPDVMMNSYLGFSLDSGKGIVSKDEITFVSGAPRANHSGAVVLLKRDMKSAHLLPEHIFDGEGLASSFGYDVAVVDLNKDGWQDIVIGAPQYFDRDGEVGGAVYVYMNQQGRWNNVKPIRLNGTKDSMFGIAVKNIGDINQDGYPDIAVGAPYDDLGKVFIYHGSANGINTKPTQVLKGISPYFGYSIAGNMDLDRNSYPDVAVGSLSDSVTIFRSRPVINIQKTITVTPNRIDLRQKTACGAPSGICLQVKSCFEYTANPAGYNPSISIVGTLEAEKERRKSGLSSRVQFRNQGSEPKYTQELTLKRQKQKVCMEETLWLQDNIRDKLRPIPITASVEIQEPSSRRRVNSLPEVLPILNSDEPKTAHIDVHFLKEGCGDDNVCNSNLKLEYKFCTREGNQDKFSYLPIQKGVPELVLKDQKDIALEITVTNSPSNPRNPTKDGDDAHEAKLIATFPDTLTYSAYRELRAFPEKQLSCVANQNGSQADCELGNPFKRNSNVTFYLVLSTTEVTFDTPDLDINLKLETTSNQDNLAPITAKAKVVIELLLSVSGVAKPSQVYFGGTVVGEQAMKSEDEVGSLIEYEFRVINLGKPLTNLGTATLNIQWPKEISNGKWLLYLVKVESKGLEKVTCEPQKEINSLNLTESHNSRKKREITEKQIDDNRKFSLFAERKYQTLNCSVNVNCVNIRCPLRGLDSKASLILRSRLWNSTFLEEYSKLNYLDILMRAFIDVTAAAENIRLPNAGTQVRVTVFPSKTVAQYS chain 2: NRCKKAPVKSCTECVRVDKDCAYCTDEMFRDRRCNTQAELLAAGCQRESIVVMESSFQITEETQIDTTLRRSQMSPQGLRVRLRPGEERHFELEVFEPLESPVDLYILMDFSNSMSDDLDNLKKMGQNLARVLSQLTSDYTIGFGKFVDKVSVPQTDMRPEKLKEPWPNSDPPFSFKNVISLTEDVDEFRNKLQGERISGNLDAPEGGFDAILQTAVCTRDIGWRPDSTHLLVFSTESAFHYEADGANVLAGIMSRNDERCHLDTTGTYTQYRTQDYPSVPTLVRLLAKHNIIPIFAVTNYSYSYYEKLHTYFPVSSLGVLQEDSSNIVELLEEAFNRIRSNLDIRALDSPRGLRTEVTSKMFQKTRTGSFHIRRGEVGIYQVQLRALEHVDGTHVCQLPEDQKGNIHLKPSFSDGLKMDAGIICDVCTCELQKEVRSARCSFNGDFVCGQCVCSEGWSGQTCNCSTGSLSDIQPCLREGEDKPCSGRGECQCGHCVCYGEGRYEGQFCEYDNFQCPRTSGFLCNDRGRCSMGQCVCEPGWTGPSCDCPLSNATCIDSNGGICNGRGHCECGRCHCHQQSLYTDTICEINYSAIHPGLCEDLRSCVQCQAWGTGEKKGRTCEECNFKVKMVDELKRAEEVVVRCSFRDEDDDCTYSYTMEGDGAPGPNSTVLVHKKKDCPPGS |
| 0.0156 | recombinant human glypican‐1 (natural protein, UniProt P35052 24-530, looked up, glypican-1, human, recombinant; also called hGlypican‐1) DPASKSRSCGEVRQIYGAKGFSLSDVPQAEISGEHLRICPQGYTCCTSEMEENLANRSHAELETALRDSSRVLQAMLATQLRSFDDHFQHLLNDSERTLQATFPGAFGELYTQNARAFRDLYSELRLYYRGANLHLEETLAEFWARLLERLFKQLHPQLLLPDDYLDCLGKQAEALRPFGEAPRELRLRATRAFVAARSFVQGLGVASDVVRKVAQVPLGPECSRAVMKLVYCAHCLGVPGARPCPDYCRNVLKGCLANQADLDAEWRNLLDSMVLITDKFWGTSGVESVIGSVHTWLAEAINALQDNRDTLTAKVIQGCGNPKVNPQGPGPEEKRRRGKLAPRERPPSGTLEKLVSEAKAQLRDVQDFWISLPGTLCSEKMALSTASDDRCWNGMARGRYLPEVMGDGLANQINNPEVEVDITKPDMTIRQQIMQLKIMTNRLRSAYNGNDVDFQDASDDGSGSGSGDGCLDDLCSRKVSRKSSSSRTPLTHALPGLSEQEGQKTS |
| 0.00685 | recombinant human vitronectin (natural protein, UniProt P04004 20-478, looked up, vitronectin, human, recombinant; also called hVitronectin) DQESCKGRCTEGFNVDKKCQCDELCSYYQSCCTDYTAECKPQVTRGDVFTMPEDEYTVYDDGEEKNNATVHEQVGGPSLTSDLQAQSKGNPEQTPVLKPEEEAPAPEVGASKPEGIDSRPETLHPGRPQPPAEEELCSGKPFDAFTDLKNGSLFAFRGQYCYELDEKAVRPGYPKLIRDVWGIEGPIDAAFTRINCQGKTYLFKGSQYWRFEDGVLDPDYPRNISDGFDGIPDNVDAALALPAHSYSGRERVYFFKGKQYWEYQFQHQPSQEECEGSSLSAVFEHFAMMQRDSWEDIFELLFWGRTSAGTRQPQFISRDWHGVPGQVDAAMAGRIYISGMAPRPSLAKKQRFRHRNRKGYRSQRGHSRGRNQNSRRPSRATWLSLFSSEESNLGANNYDDYRMDWLVPATCEPIQSVFFFSGDKYYRVNLRTRRVDTVDPPYPRSIAQYWLGCPAPGHL |
